The source of these data is the supplement of paper PMC11246515.

A short description of this data set: total protein half-life in vivo (active degradation + dilution); higher = more stable protein.
[1] abbreviates: E. coli NCM3722 delta-clpP delta-lon delta-hslV, growth: N-lim chemostat, doubling time 6 h.
The mark [2] stands for this setting: E. coli NCM3722 delta-clpP, growth: N-lim chemostat, doubling time 6 h.
Setting [3] is: E. coli NCM3722 delta-hslV, growth: N-lim chemostat, doubling time 6 h.
Where [4] appears, read: E. coli NCM3722 delta-lon, growth: N-lim chemostat, doubling time 6 h.
Setting [5] is: E. coli NCM3722 delta-smpB, growth: N-lim chemostat, doubling time 6 h.
Setting [6] is: wild type E. coli NCM3722, growth: C-lim chemostat, doubling time 3 h.
Setting [7] is: wild type E. coli NCM3722, growth: C-lim chemostat, doubling time 6 h.
[8] abbreviates: wild type E. coli NCM3722, growth: C-lim chemostat, doubling time 12 h.
Setting [9] is: wild type E. coli NCM3722, growth: N-lim chemostat, doubling time 6 h.
[10] abbreviates: wild type E. coli NCM3722, growth: N-lim chemostat, doubling time 12 h.
Setting [11] is: wild type E. coli NCM3722, growth: P-lim chemostat, doubling time 6 h.
[12] abbreviates: wild type E. coli NCM3722, growth: P-lim chemostat, doubling time 12 h.

± gives the standard deviation of the averaged measurements.

For “MALWGGRFTQAADQRFKQFNDSLRFDYRLAEQDIVGSVAWSKALVTVGVLTAEEQAQLEEALNVLLEDVRARPQQILESDAEDIHSWVEGKLIDKVGQLGKKLHTGRSRNDQVATDLKLWCKDTVSELLTANRQLQSALVETAQNNQDAVMPGYTHLQRAQPVTFAHWCLAYVEMLARDESRLQDALKRLDVSPLGCGALAGTAYEIDREQLAGWLGFASATRNSLDSVSDRDHVLELLSAAAIGMVHLSRFAEDLIFFNTGEAGFVELSDRVTSGSSLMPQKKNPDALELIRGKCGRVQGALTGMMMTLKGLPLAYNKDMQEDKEGLFDALDTWLDCLHMAALVLDGIQVKRPRCQEAAQQGYANATELADYLVAKGVPFREAHHIVGEAVVEAIRQGKPLEDLPLSELQKFSQVIDEDVYPILSLQSCLDKRAAKGGVSPQQVAQAIAFAQARLG”, the “total protein half-life in vivo” value amounted to 4.96 ± 1 h under setting [1]; 4 ± 0.055 h under setting [2]; 3.462 ± 0.011 h under setting [3]; 4.05 ± 0.2 h under setting [4]; 3.65 ± 0.28 h under setting [5]; 3.02 ± 0.055 h under setting [6]. For the same sequence, the “total protein half-life in vivo” value is, setting by setting: under setting [7], 5.59 ± 0.33 h; under setting [8], 10.5 ± 0.22 h; under setting [9], 3.77 ± 0.17 h; under setting [10], 5.76 ± 0.05 h; under setting [11], 5.29 ± 0.76 h; under setting [12], 11 ± 0.68 h.

Turning to “MVSRKRNSVIYRFASLLLVLMLSACSALQGTPQPAPPVTDHPQEIRRDQTQGLQRIGSVSTMVRGSPDDALAEIKAKAVAAKADYYVVVMVDETIVTGQWYSQAILYRK”, the “total protein half-life in vivo” value turned out to be 5.47 ± 0.3 h under setting [1]; 6.25 ± 1 h under setting [2]; 7.06 h under setting [3]; 6.07 ± 0.52 h under setting [4]; 5.58 ± 0.19 h under setting [5]; 3.29 ± 0.23 h under setting [6]. For the same sequence, the “total protein half-life in vivo” value is, setting by setting: under setting [8], 11.6 ± 1.4 h; under setting [9], 6.049 ± 0.053 h; under setting [11], 7.24 ± 1.1 h; under setting [12], 14.8 h.

With “MFVKLLRSVAIGLIVGAILLVAMPSLRSLNPLSTPQFDSTDETPASYNLAVRRAAPAVVNVYNRGLNTNSHNQLEIRTLGSGVIMDQRGYIITNKHVINDADQIIVALQDGRVFEALLVGSDSLTDLAVLKINATGGLPTIPINARRVPHIGDVVLAIGNPYNLGQTITQGIISATGRIGLNPTGRQNFLQTDASINHGNSGGALVNSLGELMGINTLSFDKSNDGETPEGIGFAIPFQLATKIMDKLIRDGRVIRGYIGIGGREIAPLHAQGGGIDQLQGIVVNEVSPDGPAANAGIQVNDLIISVDNKPAISALETMDQVAEIRPGSVIPVVVMRDDKQLTLQVTIQEYPATN [P0AEE3]”, the “total protein half-life in vivo” value under setting [1] worked out at 7.33 ± 0.89 h; the “total protein half-life in vivo” value under setting [3] amounted to 5.79 ± 0.39 h; the “total protein half-life in vivo” value under setting [4] turned out to be 5.86 ± 0.29 h; the “total protein half-life in vivo” value under setting [5] was determined as 6.21 ± 0.68 h; the “total protein half-life in vivo” value under setting [6] turned out to be 3.25 ± 0.23 h; the “total protein half-life in vivo” value under setting [7] is 5.91 ± 0.28 h. Besides, the “total protein half-life in vivo” value is 11.3 ± 1.2 h under setting [8]; 5.98 ± 0.72 h under setting [9]; 13.8 ± 2.3 h under setting [10]; 7.16 ± 0.27 h under setting [11]; 12.1 ± 0.81 h under setting [12].

As for “MPLRRFSPGLKAQFAFGMVFLFVQPDASAADISAQQIGGVIIPQAFSQALQDGMSVPLYIHLAGSQGRQDDQRIGSAFIWLDDGQLRIRKIQLEESEDNASVSEQTRQQLMALANAPFNEALTIPLTDNAQLDLSLRQLLLQLVVKREALGTVLRSRSEDIGQSSVNTLSSNLSYNLGVYNNQLRNGGSNTSSYLSLNNVTALREHHVVLDGSLYGIGSGQQDSELYKAMYERDFAGHRFAGGMLDTWNLQSLGPMTAISAGKIYGLSWGNQASSTIFDSSQSATPVIAFLPAAGEVHLTRDGRLLSVQNFTMGNHEVDTRGLPYGIYDVEVEVIVNGRVISKRTQRVNKLFSRGRGVGAPLAWQVWGGSFHMDRWSENGKKTRPAKESWLAGASTSGSLSTLSWAATGYGYDNQAVGETRLTLPLGGAINVNLQNMLASDSSWSSIGSISATLPGGFSSLWVNQEKTRIGNQLRRSDADNRAIGGTLNLNSLWSKLGTFSISYNDDRRYNSHYYTADYYQNVYSGTFGSLGLRAGIQRYNNGDSNANTGKYIALDLSLPLGNWFSAGMTHQNGYTMANLSARKQFDEGTIRTVGANLSRAISGDTGDDKTLSGGAYAQFDARYASGTLNVNSAADGYVNTNLTANGSVGWQGKNIAASGRTDGNAGVIFNTGLEDDGQISAKINGRIFPLNGKRNYLPLSPYGRYEVELQNSKNSLDSYDIVSGRKSRLTLYPGNVAVIEPEVKQMVTVSGRIRAEDGTLLANARINNHIGRTRTDENGEFVMDVDKKYPTIDFRYSGNKTCEVALELNQARGAVWVGDVVCSGLSSWAAVTQTGEENES”, the “total protein half-life in vivo” value under setting [6] is 2.91 h.

As for “MKILVDENMPYARDLFSRLGEVTAVPGRPIPVAQLADADALMVRSVTKVNESLLAGKPIKFVGTATAGTDHVDEAWLKQAGIGFSAAPGCNAIAVVEYVFSSLLMLAERDGFSLYDRTVGIVGVGNVGRRLQARLEALGIKTLLCDPPRADRGDEGDFRSLDELVQRADILTFHTPLFKDGPYKTLHLADEKLIRSLKPGAILINACRGAVVDNTALLTCLNEGQKLSVVLDVWEGEPELNVELLKKVDIGTSHIAGYTLEGKARGTTQVFEAYSKFIGHEQHVALDTLLPAPEFGRITLHGPLDQPTLKRLVHLVYDVRRDDAPLRKVAGIPGEFDKLRKNYLERREWSSLYVICDDASAASLLCKLGFNAVHHPAR”, the “total protein half-life in vivo” value by setting is: under setting [1], 5.83 ± 1.3 h; under setting [2], 5.47 ± 1.3 h; under setting [3], 5.17 ± 0.28 h; under setting [4], 5.42 ± 0.064 h; under setting [5], 4.62 ± 0.18 h; under setting [6], 3 ± 0.38 h. The “total protein half-life in vivo” value runs as follows: under setting [7], 5.58 ± 0.23 h; under setting [8], 12.6 ± 3.2 h; under setting [9], 4.72 ± 0.047 h; under setting [10], 8.268 ± 0.016 h; under setting [11], 5.71 ± 0.38 h; under setting [12], 11.1 ± 0.13 h.

As for “MSNVIASLEKVLLPFAVKIGKQPHVNAIKNGFIRLMPLTLAGAMFVLINNVFLSFGEGSFFYSLGIRLDASTIETLNGLKGIGGNVYNGTLGIMSLMAPFFIGMALAEERKVDALAAGLLSVAAFMTVTPYSVGEAYAVGANWLGGANIISGIIIGLVVAEMFTFIVRRNWVIKLPDSVPASVSRSFSALIPGFIILSVMGIIAWALNTWGTNFHQIIMDTISTPLASLGSVVGWAYVIFVPLLWFFGIHGALALTALDNGIMTPWALENIATYQQYGSVEAALAAGKTFHIWAKPMLDSFIFLGGSGATLGLILAIFIASRRADYRQVAKLALPSGIFQINEPILFGLPIIMNPVMFIPFVLVQPILAAITLAAYYMGIIPPVTNIAPWTMPTGLGAFFNTNGSVAALLVALFNLGIATLIYLPFVVVANKAQNAIDKEESEEDIANALKF”, the “total protein half-life in vivo” value by setting is: under setting [3], 7.11 h; under setting [5], 6.04 ± 0.73 h; under setting [7], 6.68 ± 0.31 h; under setting [8], 9.58 ± 2.1 h; under setting [9], 6.51 h; under setting [12], 13.3 h.

As to “MTDYAISKKSKRSLWIPILVFITLAACASAGYSYWHSHQVAADDKAQQRVVPSPVFYALDTFTVNLGDADRVLYIGITLRLKDEATRSRLSEYLPEVRSRLLLLFSRQDAAVLATEEGKKNLIAEIKTTLSTPLVAGQPKQDVTDVLYTAFILR [P0ABX8]”, the “total protein half-life in vivo” value came to 1.72 ± 0.4 h under setting [6], 2.16 ± 0.27 h under setting [7] and 3 ± 0.22 h under setting [8].

In the case of “MTIKLIVGLANPGAEYAATRHNAGAWFVDLLAERLRAPLREEAKFFGYTSRVTLGGEDVRLLVPTTFMNLSGKAVAAMASFFRINPDEILVAHDELDLPPGVAKFKLGGGHGGHNGLKDIISKLGNNPNFHRLRIGIGHPGDKNKVVGFVLGKPPVSEQKLIDEAIDEAARCTEMWFTDGLTKATNRLHAFKAQ [P0A7D1]”, the “total protein half-life in vivo” value was 5.126 ± 0.023 h under setting [1]; 4.76 ± 0.084 h under setting [3]; 5.04 ± 0.51 h under setting [4]; 4.54 ± 0.08 h under setting [5]; 3.19 ± 0.081 h under setting [6]; 6.09 ± 0.37 h under setting [7]. In addition, the “total protein half-life in vivo” value runs as follows: under setting [8], 10.5 ± 0.85 h; under setting [9], 4.81 ± 0.17 h; under setting [10], 8.06 ± 0.66 h; under setting [11], 5.91 ± 0.13 h; under setting [12], 11.4 ± 0.29 h.
